B1: 3B6: third round clone, abasic site bypass; SEQ ID NO: 90 (protein)
chain: MAMLPLFEPKGRVLLVDGHHLAYRAFFALKGLTTSRGEPVQAVYGFAKSLLKALKEDGYKAVFVVFDAKAPSFRHEAYEAYKAGRAPTPEDFPRQLALIKELVDLLGFTRLEVQGYEADDVLATLAKKAEKEGYEVRILTADRDLYQLVSDRVAVLHPEGHLITPEWLWEKYGLRPEQWVDFRALVGDPSNNLPGVKGIGEKTALKLLKEWGSLENLLKNLDRVKPENVREKIKAHLEDLRLSLELSRVRTDLPLEVDLAQGRELDRERLRAFLERLEFGGLLHEFGLLESPKALEEAPWPPPEGAFVGFVLSRKEPMWADLLALAAARGGRVHRAPEPYKALRDLKEARGLLAKDLSVLALREGLGLPPGDDPMLLAYLLDPSNTAPEGVARRYGGEWTEEAGERAALSERLFANLWGRLEGEERLLWLYREVDRPLSAVLAHMEATGVRLDVAYLRALSLEVAEEIARLEAEVFRLAGHPFNLNSRDQLERVLFDELGLPAIGKTEKTGKRSTSAAVLEALREAHPIVEKILQYRELTKLKSTYIDPLPNLIHPRTGRLHTRFNQTATATGRLSSSDPNLQNIPVRTPLGQRIRRAFIAEEGWLLVVLDYSQIELRVLAHLSGDENLIRVFQEGRDIHTETASWMFGVPREAVDPLMRRAAKTINFGVLYGMSAHRLSQELAIPYEEAQAFIERYFQSFPKVRAWIEKTLEEGRKRGYVETLFGRRRYVPDLNARVKGVREAAERMAFNMPVQGTAADLMKLAMVKLFPRLREMGARMLLQVHDELLLEAPQARAGEVAALAKEAMEKAYPLAVPLEVKVGIGEDWLSAKE
modifications: Mutant Taq polymerase
B2: 3C12: third round clone, four mismatch extension; SEQ ID NO: 96 (protein)
chain: MAMLPLFEPKGRVLLVDGHHLAYRTFFALKGPTTSRGEPVQVVYGFAKSLLKALKEDGYKAVFVVFDAKAPSFRHKAYEAYRAGRAPTPEDFPRQLALIKELVDLLGFTRLEVPGYEADDVLATLAKKAEKEGYEVRILTADRGLYQLVSDRVAVLHPEGHLITPEWLWEKYGLRPEQWVDFRALVGDPSDNLPGVKGIGEKTALKLLKEWGSLENLLKNLDRVKPENVREKIKAHLEDLRLSLELSRVRTDLPLEVDLAQGREPDREGLRAFLERLEFGSLLHEFGLLESPKALEEAPWPPPEGAFVGFVLSRKEPMWADLLALAAARGGRVHRAPEPYKALRDLKEARGLLAKDLSVLALREGLGLPPGDDPMLLAYLLDPSNTAPEGVARRYGGEWTEEAGERAALSERLFANLWGRLEGEERLLWLYREVDRPLSAVLAHMEATGVRLDVACLQALSLELAEEIRRLEEEVFRLAGHPFNLNSRDQLERVLFDELGLPAIGKTEKTGKRSTSAAILEALREAHPIVEKILQYRELTKLKSTYIDPLPDLIHPRTGRLHTRFNQTATATGRLSSSGPNLQNIPVRTPLGQRIRRAFVAEEGWLLVVLDYSQIELRVLAHLSGDENLTRVFLEGRDIHTETASWMFGVPREAVDPLMRRAAKTINFGVLYGMSAHRLSQELAIPYEEAQAFIERYFQSFPKVRAWIEKTLEEGRKRGYVETLFGRRRYVPDLNARVKSVREAAERMAFNMPVQGTAADLMKLAMVKLFPRLREMGARMLLQVHDELLLEAPQARAEEVAALAKEAMEKAYPLAVPLEVKVGIGEDWLSAKE
modifications: Mutant Taq polymerase
B3: 3B8: third round clone; SEQ ID NO: 92 (protein)
chain: MAMLPLFEPKGRVLLVDGHHLAYRTFFALKGLTTSRGEPVQVVYGFAKSLLKALKEDGYKAVFVVFDAKAPSLRHEAYEAYKAGRAPTPEDFLRQLALIKELVDLLGFTRLEVQGYEADDVLATLAKKAEKEGYEVRILTADRDLYQLVSDRVAVLHPEGHLITPEWLWEKYGLRPEQWVDFRALVGDPSDNLPGVKGIGEKTALKLLKEWGSLENLLKNLDRLKPAIREKILAHMDDLKLSWDLAKVRTDLPLEVDFAKRREPDRERLRAFLERLELGSLLHEFGLLESPKTLEEASWPPPEGAFVGFVLSRKEPMWADLLALAAARGGRVHRAPEPYKALRDLKEARGLLAKDLSVLALREGLGLPPGDDPMLLAYLLDPSNTTPEGVARRYGGEWTKEAGERAALSERLFANLWGRLEGEERLLWLYREVDRPLSAVLAHMEATGVRLDVAYLRALSLEVAEEIARLEAEVFRLAGHPFNLNSRDQLERVLFDELGLPAIGKTEKTGKRSTSAAVLEALREAHPIVEKILQYRELTKLKSTYIDPLPDLIHPRTGRLHTRFNQTATATGRLSSSDPNLQNIPVRTPLGQRIRRAFVAEEGWLLVVLDYSQIELRVLAHLSGDENLTRVFLEGRDIHTETASWMFGVPREAVDPLMRRAAKTINFGVLYGMSAHRLSQELAIPYEEAQAFIERYFQSFPKVRAWIEKTLEEGRKRGYVETLFGRRRYVPDLNARVKSVREAAERMAFNMPVQGTAADLMKLAMVKLFPRLREMGARMLLQVHDELLLEAPQARAEEVAALAKEAMEKAYPLAVPLEVKEGIGEDWLSAKE
modifications: Mutant Taq polymerase
B4: 3B5: third round clone, four mismatch extension; SEQ ID NO: 88 (protein)
chain: MAMLPLFEPKGRVLLVDGHHLAYRTSFALKGPTTSRGEPVQVVYGFAKSLLKALKEDGYKAVFVVFDAKAPPFRHKAYEAYRAGRAPTPEDFPRQLALVKELVDLLGFTRLEVPGYEADDVLATLAKKAEKEGYEVRILTADRGLYQLVSDRVAVLHPEGHLITPEWLWEKYGLRPEQWVDFRALVGDPSDNLPGVKGIGEKTALKLLKEWGSLENLLKNLDRVKPENVREKIKAHLEDLRLSLELSRVRTDLPLEVDLAQGREPDRERLRAFLERLEFGSLLHEFGLLESPKALEEAPWPPPEGAFVGFVLSRKAPMWADLLALAAARGGRVYRAPEPYKALRDLKEARGLLAKDLSVLALREGLGLPPGDDPMLLAYLLDPSNTTPEGVARRYGGEWTEEAGERAALSERLFANLWGRLEGEERLLWLYREVDRPLSAVLAHMEATGVRLDVACLQALSLELAEEIRRLEEEVFRLAGHTFNLNSRDQLERVLFDELGLPAIGKTEKTGKRSTSAAILEALREAHPIVEKILQYRELTKLKSTYIDPLPDLIHPRTGRLHTRFNQTATATGRLSSSDPNLQNIPVRTPLGQRIRRAFIAEEGWLLVVLDYSQIELRVLAHLSGDENLIRVFQEGRDIHTETASWMFGVPREAVDPLMRRAAKTINFGVLYGMSAHRLSQELAIPYEEAQAFIERYFQSFPKVRAWIEKALEEGRRRGYVETLFGRRRYVPDLNARVKSVREAAERMAFNMPVQGTAADLMKLAMVKLFPRLREMGARMLLQVHDELLLEAPQARAEEVAALAKEAMEKAYPLAVPLEVKVGIGEDWLSAKE
modifications: Mutant Taq polymerase

Experiments:
Format in all cases: biochemical
[1] = test system: four mismatch primers; test: PCR screen of clones with four mismatch primers; conditions: 292 base pair product, 50 cycles of PCR
Method: The resultant clones from both CSR and CST were screened and ranked by PCR assay. Briefly, 2 μl of induced cells were added to 20 μl of PCR mix with the relevant 4 mismatch primers. Clones that produced a band were then subjected to further analysis and their activity on single, double and quadruple mismatch primers (single mismatch primers: 5′-CAGGAAACAGCTATGACAAAAATCTAGATAACGAGGGA-3′ (SEQ ID NO: 48) and 5′-GTAAAACGACGGCCAGTACCACCGAACTGCGGGTGACGCCAAGCC 3′ (SEQ ID NO: 49); double mismatch primers: CAGGAAACAGCTATGACTCGACAAAAATCTAGATAACGACC (SEQ ID NO: 50) and GTAAAACGACGGCCAGTTTATTAACCACCGAACTGC (SEQ ID NO: 51); four mismatch primers above.) was investigated. Polymerases that could extend all of these mismatches were found, though many polymerases could do only one of the mismatches and […].
The best first and second round clones were shuffled as described above and subjected to another round of CSR. The same two sets of mismatch primers with four mismatches at their 3′ end were used in the emulsion as two separate sources of selective pressure. This was then dealt with as above and the resultant clones were screened and ranked by PCR assay (as above). Once again, polymerases that could extend all of these mismatches were found. In particular, clones 3B5.

[2] = test system: primers with an abasic site seven bases from their 3′ end; test: Abasic site bypass in PCR; conditions: 176 bp product, 20 cycles of PCR
Method: FIG. 10. A list of polymerases selected to extend four mismatches were assayed for their ability to extend abasic sites in PCR. Primers with an abasic site seven bases from their 3′ end were designed. Such primers will prevent exponential amplification of the target sequence, restricting it to […] amplification, unless the abasic site is bypassed. […] (A) Screen which identified clone A10. (B) A further 4 polymerases that display good abasic site bypass. Lane M: markers, Hae III digest of Φ X174.
A list of polymerases selected to extend four mismatches were assayed for their ability to extend abasic sites in PCR (FIG. 10).

[3] = test system: template containing an abasic site; test: Translesion replication assay (primer extension), abasic site; conditions: gel-extension assay, 60° C.
Method: Template primers 22 (undamaged) or 23 (containing a synthetic abasic site) were synthesized by Lofstrand Laboratories (Gaithersburg, Md.). Template primer 24 (containing a single cis-syn thymine dimer), was synthesized as described (34). Primer 25 was ^32P-labeled and annealed to one of the three templates 22, 23, 24 (at a primer template ratio of molar 1:1.5) and extended in 40 mM Tris.HCl at pH 8.0, 5 mM MgCl2, 100 μM of each dNTP, 10 mM DTT, 250 μg/ml BSA, 2.5% glycerol, 10 nM primer-template DNA and 0.1 Unit of polymerase at 60° C. for various times.
Primer extension assays were essentially as described in (Ghadessy et al., 2004). Briefly, undamaged oligonucleotides and a 51mer containing a synthetic abasic site were synthesized by Lofstrand Laboratories (Gaithersburg, Md.) using standard techniques and were gel purified prior to use. A 20mer primer (LES—20 P) with the sequence 5′-[…]-3′ (SEQ ID NO: 99) was 5′-labeled with [^32P]ATP (5000 Ci/mmole; 1 Ci=37 GBq) (Pharmacia) using T4 polynucleotide kinase (Invitrogen, Carlsbad Calif.). Radiolabeled primer-template DNAs were prepared by annealing the 5′[^32P] labeled 20mer primer to one of the two following 51mer templates (at a primer template ratio of molar 1:1.5). 1) undamaged DNA (UNDT51T); 5′-AGCTACCATGCCTGCACGAATTCGGCATCCGTCGCGACCACGGTCGCAGCG-3′ (SEQ ID NO: 100); 2) an oligo (LABA51T) containing a synthetic abasic site (indicated as an X in bold font); 5′-AGCTACCATGCCTGCACGACA XCG GCATCCGTCGCGACCACGGTCGCAGCG-3′ (SEQ ID NO: 101). Standard replication reactions of 10 contained 40 mM Tris.HCl at pH 8.0, 5 mM MgCl2, 100 μM of each ultrapure dNTP (Amersham Pharmacia Biotech, NJ), 10 mM DTT, 250 μg/ml BSA, 2.5% glycerol, 10 nM 5′[32P] primer-template DNA and 0.1 Unit of polymerase. After incubation at 60° C. for various times reactions were terminated by the addition of 10 μl of 95% formamide/10 mM EDTA and the samples heated to 100° C. for 5 min. Reaction mixtures (5 μl) were subjected to 20% polyacrylamide/7 M Urea gel electrophoresis and replication products visualized by PhosphorImager analysis.

Molecule	extension of primers containing four mismatches in PCR [1]	amplification product in PCR with abasic site primers [2]	extension of primers containing four mismatches in PCR ([1]; listed as C12)	abasic site bypass in primer extension [3]	extension of primers containing four mismatches in PCR ([1]; listed as B8)
B1	cannot	produced an amplification product			
B2	able to extend primers containing four mismatches	produced an amplification product	can also extend four mismatched primers in PCR	improved abasic site activity	
B3	able to extend primers containing four mismatches	produced an amplification product			cannot
B4	able to extend primers containing four mismatches				
